Holding throughout (assay): ELISA, lectin-captured E1E2 lysate, Ab 1 ug/ml;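 also: E1E2 captured on Galanthus nivalis lectin-coated plates, bound test antibody read out by an HRP-linked secondary antibody and TMB colour development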
Test [1] deals with E1E2 complex (H77) with E1 mutation N305A/N234A (HCV genotype 1a, isolate H77, UniProt P27958 192-383; P27958 384-746).
The target of test [2] is E1E2 complex (H77) with E1 mutation N325A (HCV genotype 1a, isolate H77, UniProt P27958 192-383; P27958 384-746).
In test [3] the target is E1E2 complex (H77) with E1 mutation Y192A (HCV genotype 1a, isolate H77, UniProt P27958 193-383; P27958 384-746).
Test [4] addresses E1E2 complex (H77) with E1 mutation N305A/N325A (HCV genotype 1a, isolate H77, UniProt P27958 192-383; P27958 384-746).
Test [5] addresses E1E2 complex (H77) with E1 mutation S307A (HCV genotype 1a, isolate H77, UniProt P27958 192-383; P27958 384-746).
Test [6] deals with E1E2 complex (H77) with E1 mutation P328A (HCV genotype 1a, isolate H77, UniProt P27958 192-383; P27958 384-746).
Test [7] addresses E1E2 complex (H77) with E1 mutation F293A (HCV genotype 1a, isolate H77, UniProt P27958 192-383; P27958 384-746).
Test [8] deals with E1E2 complex (H77) with E1 mutation Q289A (HCV genotype 1a, isolate H77, UniProt P27958 192-383; P27958 384-746).
Test [9] deals with E1E2 complex (H77) with E1 mutation G311A (HCV genotype 1a, isolate H77, UniProt P27958 192-383; P27958 384-746).
The target of test [10] is E1E2 complex (H77) with E1 mutation A274G (HCV genotype 1a, isolate H77, UniProt P27958 192-383; P27958 384-746).
Test [11] has as its target E1E2 complex (H77) with E1 mutation H261A (HCV genotype 1a, isolate H77, UniProt P27958 192-383; P27958 384-746).
Test [12] addresses E1E2 complex (H77) with E1 mutation G225A (HCV genotype 1a, isolate H77, UniProt P27958 192-383; P27958 384-746).
Test [13] has as its target E1E2 complex (H77) with E1 mutation R195A (HCV genotype 1a, isolate H77, UniProt P27958 192-383; P27958 384-746).
The target of test [14] is E1E2 complex (H77) with E1 mutation I212A (HCV genotype 1a, isolate H77, UniProt P27958 192-383; P27958 384-746).
Test [15] concerns the target E1E2 complex (H77) with E1 mutation V246A (HCV genotype 1a, isolate H77, UniProt P27958 192-383; P27958 384-746).
For test [16], the target named is E1E2 complex (H77) with E1 mutation A319G (HCV genotype 1a, isolate H77, UniProt P27958 192-383; P27958 384-746).
Test [17] has as its target E1E2 complex (H77) with E1 mutation N196A/N234A (HCV genotype 1a, isolate H77, UniProt P27958 192-383; P27958 384-746).
Test [18] deals with E1E2 complex (H77) with E1 mutation W353A (HCV genotype 1a, isolate H77, UniProt P27958 192-383; P27958 384-746).
In test [19] the target is E1E2 complex (H77) with E1 mutation M323A (HCV genotype 1a, isolate H77, UniProt P27958 192-383; P27958 384-746).
The target of test [20] is E1E2 complex (H77) with E1 mutation V227A (HCV genotype 1a, isolate H77, UniProt P27958 192-383; P27958 384-746).
Test [21] deals with E1E2 complex (H77) with E1 mutation W239A (HCV genotype 1a, isolate H77, UniProt P27958 192-383; P27958 384-746).
Test [22] deals with E1E2 complex (H77) with E1 mutation P224A (HCV genotype 1a, isolate H77, UniProt P27958 192-383; P27958 384-746).

From patent US20110311550A1 (Scripps Research, published 2011) come the findings set out here.

B1: N4 IgG (antibody, V domains shown)
VH: VQLLEQSGPEVKKPGDSLRISCKMSGDSLVTTWIGWVRQKPGQGLEWMGIINPGDSSTNIYPGDSATRYGPSFQGQVTISIDKSTSTAYLQWNNVKASDTGIYYCARHVPVPISGTFLWREREMHDFGYFDDWGQGTLVIVSS
VL: ELTLTQSPGTLSLSPGERATLSCRASQSVSNNYLAWYQQKPGQAPRLLIYGASSRATGIPDRFSGSGSGTGFTLIISRLEPEDFAVYYCQQYGSSSITFGQGTRLEIKR
notes: also called IgG N4
B1: the “Binding relative to wt (%)” value worked out at 30% in test [1]; 150% in test [2]; 122% in test [3]; 74% in test [4]; 58% in test [5]; 127% in [6]. Also, the “Binding relative to wt (%)” value in test [7] was 95%; in test [8] it was 94%; in test [9], 87%; in test [10], 71%; in test [11] it was 106%; in test [12], 79%. In addition, the “Binding relative to wt (%)” value in test [13] is 121%; in [14], 51%; in test [15], 97%; in test [16], 113%; in [17] it was 32%; in test [18] it was 70%. For the same molecule, the “Binding relative to wt (%)” value turned out to be 99% in test [19], 98% in test [20], 67% in [21] and 104% in [22].
